The chains are these.
B1: Azoarcus group I ribozyme (parent)
chain: GUGCCUUGCGCCGGGAAACCACGCAAGGGAUGGUGUCAAAUUCGGCGAAACCUAAGCGCCCGCCCGGGCGUAUGGCAACGCCGAGCCAAGCUUCGGCGCCUGCGCCGAUGAAGGUGUAGAGACUAGACGGCACCCACCUAAGGCAAACGCUAUGGUGAAGGCAUAGUCCAGGGAGUGGCGAAAGUCACACAAACCGG

This data set covers variants of B1. In words: reverse-splicing fitness (ratio to wild type); higher = more active; in vitro selection; Mg2+ level not given. Summed up:
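An in vitro group I ribozyme library with randomized positions was T7-transcribed and gel-purified. In triplicate, 10 pmol RNA in EPPS pH 7.5 was reacted with 50 pmoles of a 30-nt RNA substrate for 1 h at 37 °C across several added MgCl2 levels (1–48 mM), then stopped with EDTA. Products were reverse transcribed from a substrate-complementary primer, PCR-amplified and sequenced (HiSeq 4000). Fitness is a variant's read proportion after selection over that before, normalised to wild type.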
For C82G A120C A145U C150G C169A U176C, the reverse-splicing fitness was 0.0102.

Consider C82G A120C A145U C150G C169A U176A, for which the reverse-splicing fitness came to 0.0119.

Take C82G A120C A145U C150G C169A U176G: the reverse-splicing fitness turned out to be 0.00473.

On to C82G A120C C150G U176C, for which the reverse-splicing fitness was determined as 0.0138.

C82G A120C C150G U176A: the reverse-splicing fitness is 0.00858.

As to C82G A120C C150G U176G, the reverse-splicing fitness is 0.00413.

As for C82G A111U C169G U176A, the reverse-splicing fitness came to 0.0157.

Consider C82G A111U C169G U176G, for which the reverse-splicing fitness came to 0.00614.

On to C82G A111U C169G U176C, for which the reverse-splicing fitness was found to be 0.0227.

For C82G A120C A145G U176G, the reverse-splicing fitness stood at 0.0158.

C82G A120C A145G U176C: the reverse-splicing fitness was found to be 0.103.

Take C82G A120C A145G U176A: the reverse-splicing fitness was 0.0722.

Take C82G A120C A145U C169G U176C: the reverse-splicing fitness stood at 0.0138.

For the variant C82G A120C A145U C169G U176G, the reverse-splicing fitness was determined as 0.00368.

On to C82G A120C A145U C169G U176A, for which the reverse-splicing fitness was determined as 0.0121.

On to C82G A120C A145G C150U C169G U176A, for which the reverse-splicing fitness is 0.0139.

Take C82G A120C A145G C150U C169G U176G: the reverse-splicing fitness came to 0.00538.

Turning to C82G A120C A145G C150U C169G U176C, the reverse-splicing fitness was determined as 0.0205.

With C82G A111U C150U U176G, the reverse-splicing fitness amounted to 0.0348.

Turning to C82G A111U C150U U176A, the reverse-splicing fitness was 0.0918.

Take C82G A111U C150U U176C: the reverse-splicing fitness stood at 0.131.

C82G A111U A145U C169G: the reverse-splicing fitness came to 0.00896.

C82G A111U A145U C169U: the reverse-splicing fitness was found to be 0.0113.

In the case of C82G A111U A145U C169A, the reverse-splicing fitness was determined as 0.00754.

Turning to C82G A120C A145G C150A C169A U176C, the reverse-splicing fitness worked out at 0.0236.

For the variant C82G A120C A145G C150A C169A U176G, the reverse-splicing fitness came to 0.00671.

With C82G A120C A145G C150A C169A U176A, the reverse-splicing fitness came out at 0.0227.

As for C82G A120C A145G C150A C169U, the reverse-splicing fitness turned out to be 0.0126.

Consider C82G A120C A145G C150A C169G, for which the reverse-splicing fitness amounted to 0.00895.

Consider C82G A120C A145G C150A C169A, for which the reverse-splicing fitness is 0.0104.

Turning to C82G A120C A145G C150G, the reverse-splicing fitness worked out at 0.0242.

Consider C82G A120C A145G C150A, for which the reverse-splicing fitness stood at 0.0297.

As for C82G A120C A145G C150U, the reverse-splicing fitness came out at 0.163.

Turning to C82G A120C A145G C150G U176C, the reverse-splicing fitness came out at 0.0168.

On to C82G A120C A145G C150G U176A, for which the reverse-splicing fitness worked out at 0.0102.

With C82G A120C A145G C150G U176G, the reverse-splicing fitness was 0.00687.

Turning to C82G A120C A145G C169G U176G, the reverse-splicing fitness was 0.00417.

Take C82G A120C A145G C169G U176A: the reverse-splicing fitness stood at 0.0164.

C82G A120C A145G C169G U176C: the reverse-splicing fitness is 0.0241.

For the variant C82G A120C A145C C169A U176G, the reverse-splicing fitness came to 0.00378.

Turning to C82G A120C A145C C169A U176A, the reverse-splicing fitness was 0.0137.

For the variant C82G A120C A145C C169A U176C, the reverse-splicing fitness worked out at 0.0062.

For C82G A120C C150A U176A, the reverse-splicing fitness worked out at 0.0182.

As for C82G A120C C150A U176C, the reverse-splicing fitness was determined as 0.0287.

As for C82G A120C C150A U176G, the reverse-splicing fitness was found to be 0.0105.

Take C82G A120C A145U: the reverse-splicing fitness was 0.21.

Regarding C82G A120C A145G, the reverse-splicing fitness is 0.21.

For the variant C82G A120C A145C, the reverse-splicing fitness stood at 0.201.

Regarding C82G A111U C169A U176C, the reverse-splicing fitness came to 0.0203.

On to C82G A111U C169A U176G, for which the reverse-splicing fitness turned out to be 0.00627.

Consider C82G A111U C169A U176A, for which the reverse-splicing fitness came to 0.0152.

C82G A120C C150A C169A U176C: the reverse-splicing fitness was 0.0213.

Turning to C82G A120C C150A C169A U176A, the reverse-splicing fitness came to 0.0216.

With C82G A120C C150A C169A U176G, the reverse-splicing fitness is 0.00601.

As to C82G A120C A145U C169U U176C, the reverse-splicing fitness worked out at 0.0154.

With C82G A120C A145U C169U U176A, the reverse-splicing fitness came out at 0.0158.

Regarding C82G A120C A145U C169U U176G, the reverse-splicing fitness was determined as 0.00344.

C82G A111U C150G C169G U176C: the reverse-splicing fitness stood at 0.00587.

C82G A111U C150G C169G U176A: the reverse-splicing fitness was found to be 0.0074.

Consider C82G A111U C150G C169G U176G, for which the reverse-splicing fitness turned out to be 0.00662.

For the variant C82G A120C C150A C169G, the reverse-splicing fitness was 0.00837.

On to C82G A120C C150A C169A, for which the reverse-splicing fitness was 0.0151.

As for C82G A120C C150A C169U, the reverse-splicing fitness came out at 0.0118.

For C82G A111U A145U C169A U176A, the reverse-splicing fitness was 0.0121.

Consider C82G A111U A145U C169A U176G, for which the reverse-splicing fitness worked out at 0.00626.

Turning to C82G A111U A145U C169A U176C, the reverse-splicing fitness was found to be 0.011.

For the variant C82G A120C A145C C150U C169U U176A, the reverse-splicing fitness was 0.0146.

Regarding C82G A120C A145C C150U C169U U176G, the reverse-splicing fitness turned out to be 0.00439.

Consider C82G A120C A145C C150U C169U U176C, for which the reverse-splicing fitness amounted to 0.00971.

As for C82G A120C A145C C150G C169A, the reverse-splicing fitness was 0.00926.

Consider C82G A120C A145C C150G C169G, for which the reverse-splicing fitness was determined as 0.00712.

For C82G A120C A145C C150G C169U, the reverse-splicing fitness was found to be 0.0101.

Take C82G A111U A145U C150U C169U: the reverse-splicing fitness was determined as 0.0113.

Regarding C82G A120C A145G C150G C169G U176G, the reverse-splicing fitness is 0.00667.

C82G A120C A145G C150G C169G U176A: the reverse-splicing fitness turned out to be 0.0134.

Take C82G A120C A145G C150G C169G U176C: the reverse-splicing fitness turned out to be 0.0134.

C82G A111U C150G U176G: the reverse-splicing fitness amounted to 0.0043.

Turning to C82G A111U C150G U176A, the reverse-splicing fitness came out at 0.01.

In the case of C82G A111U C150G U176C, the reverse-splicing fitness was determined as 0.0207.

Regarding C82G A120C A145U C150A C169G U176A, the reverse-splicing fitness was 0.014.

Consider C82G A120C A145U C150A C169G U176G, for which the reverse-splicing fitness was 0.00461.

Turning to C82G A120C A145U C150A C169G U176C, the reverse-splicing fitness is 0.0161.

As for C82G A120C A145C C169U, the reverse-splicing fitness came out at 0.0218.

The values above are taken from the RNAGym collection of RNA variant scans (doi:10.1093/molbev/msab373).
